Catalytic efficiency kcat/Km of XPF(S312A)–ERCC1 on a stem–loop DNA substrate, real-time fluorescence incision assay (wild type: 1.73), catalytic efficiency kcat/Km of XPF–ERCC1–SLX4^NTD on a stem–loop DNA substrate, real-time fluorescence incision assay (XPF–ERCC1 alone: 1.73) and catalytic efficiency kcat/Km of XPF(323–326 Δ)–ERCC1–SLX4^NTD on a stem–loop DNA substrate, real-time fluorescence incision assay data for 2 molecules are collected here from publication PMC7048804.

One assay concerns the target ERCC1 (human) (UniProt P07992).
UniProt P07992, sequence (P07992 other isoform, or with tags, fused parts or gaps): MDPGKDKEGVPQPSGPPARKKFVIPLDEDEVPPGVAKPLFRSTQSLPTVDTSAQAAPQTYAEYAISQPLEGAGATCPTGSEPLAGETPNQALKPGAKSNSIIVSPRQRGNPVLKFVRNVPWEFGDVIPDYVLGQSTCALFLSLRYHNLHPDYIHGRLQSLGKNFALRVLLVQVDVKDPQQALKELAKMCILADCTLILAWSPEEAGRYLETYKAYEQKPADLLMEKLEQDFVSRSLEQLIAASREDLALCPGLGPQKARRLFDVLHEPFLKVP
Assay [1] addresses XPF–ERCC1 complex (human) (UniProt Q92889).
In assay [2] the target is XPF–ERCC1 mutant 323–326Δ^XPF (human) (UniProt Q92889).

B1: XPF S312A (enzyme)
chain: MESGQPARRIAMAPLLEYERQLVLELLDTDGLVVCARGLGADRLLYHFLQLHCHPACLVLVLNTQPAEEEYFINQLKIEGVEHLPRRVTNEITSNSRYEVYTQGGVIFATSRILVVDFLTDRIPSDLITGILVYRAHRIIESCQEAFILRLFRQKNKRGFIKAFTDNAVAFDTGFCHVERVMRNLFVRKLYLWPRFHVAVNSFLEQHKPEVVEIHVSMTPTMLAIQTAILDILNACLKELKCHNPSLEVEDLSLENAIGKPFDKTIRHYLDPLWHQLGAKTKSLVQDLKILRTLLQYLSQYDCVTFLNLLEALRATEKAFGQNSGWLFLDSSTSMFINARARVYHLPDAKMSKKEKISEKMEIKEGEETKKELVLESNPKWEALTEVLKEIEAENKESEALGGPGQVLICASDDRTCSQLRDYITLGAEAFLLRLYRKTFEKDSKAEEVWMKFRKEDSSKRIRKSHKRPKDPQNKERASTKERTLKKKKRKLTLTQMVGKPEELEEEGDVEEGYRREISSSPESCPEEIKHEEFDVNLSSDAAFGILKEPLTIIHPLLGCSDPYALTRVLHEVEPRYVVLYDAELTFVRQLEIYRASRPGKPLRVYFLIYGGSTEEQRYLTALRKEKEAFEKLIREKASMVVPEEREGRDETNLDLVRGTASADVSTDTRKAGGQEQNGTQQSIVVDMREFRSELPSLIHRRGIDIEPVTLEVGDYILTPEMCVERKSISDLIGSLNNGRLYSQCISMSRYYKRPVLLIEFDPSKPFSLTSRGALFQEISSNDISSKLTLLTLHFPRLRILWCPSPHATAELFEELKQSKPQPDAATALAITADSETLPESEKYNPGPQDFLLKMPGVNAKNCRSLMHHVKNIAELAALSQDELTSILGNAANAKQLYDFIHTSFAEVVSKGKGKK
On to B1, for which, in the assay with ERCC1 (human), the catalytic efficiency kcat/Km of XPF(S312A)–ERCC1 on a stem–loop DNA substrate, real-time fluorescence incision assay (wild type: 1.73) amounted to 4.42e+07 M⁻¹ s⁻¹.

B2: SLX4^NTD (residues 1–758) (domain or fragment)
chain: MKLSVNEAQLGFYLGSLSHLSACPGIDPRSSEDQPESLKTGQMMDESDEDFKELCASFFQRVKKHGIKEVSGERKTQKAASNGTQIRSKLKRTKQTATKTKTLQGPAEKKPPSGSQAPRTKKQRVTKWQASEPAHSVNGEGGVLASAPDPPVLRETAQNTQTGNQQEPSPNLSREKTRENVPNSDSQPPPSCLTTAVPSPSKPRTAQLVLQRMQQFKRADPERLRHASEECSLEAAREENVPKDPQEEMMAGNVYGLGPPAPESDAAVALTLQQEFARVGASAHDDSLEEKGLFFCQICQKNLSAMNVTRREQHVNRCLDEAEKTLRPSVPQIPECPICGKPFLTLKSRTSHLKQCAVKMEVGPQLLLQAVRLQTAQPEGSSSPPMFSFSDHSRGLKRRGPTSKKEPRKRRKVDEAPSEDLLVAMALSRSEMEPGAAVPALRLESAFSERIRPEAENKSRKKKPPVSPPLLLVQDSETTGRQIEDRVALLLSEEVELSSTPPLPASRILKEGWERAGQCPPPPERKQSFLWEGSALTGAWAMEDFYTARLVPPLVPQRPAQGLMQEPVPPLVPPEHSELSERRSPALHGTPTAGCGSRGPSPSASQREHQALQDLVDLAREGLSASPWPGSGGLAGSEGTAGLDVVPGGLPLTGFVVPSQDKHPDRGGRTLLSLGLLVADFGAMVNNPHLSDVQFQTDSGEVLYAHKFVLYARCPLLIQYVNNEGFSAVEDGVLTQRVLLGDVSTEAARTFLHYLYTA
B2 came in with a catalytic efficiency kcat/Km of XPF–ERCC1–SLX4^NTD on a stem–loop DNA substrate, real-time fluorescence incision assay (XPF–ERCC1 alone: 1.73) in assay [1] of 1.73e+08 M⁻¹ s⁻¹. This molecule yielded a catalytic efficiency kcat/Km of XPF(323–326 Δ)–ERCC1–SLX4^NTD on a stem–loop DNA substrate, real-time fluorescence incision assay in assay [2] of 5e+06 M⁻¹ s⁻¹.
